B1: YFP-RepoMan-wt [not stated] / endogenous PP2A-B56γ [human (endogenous in HeLa)] (parent)
chain 1: MDANSKDKPPETKESAMNNAGNASFILGTGKIVTPQKHAELPPNPCTPDTFKSPLNFSTVTVEQLGITPESFVRNSAGKSSSYLKKCRRRSAVGARGSPETNHLIRFIARQQNIKNARKSPLAQDSPSQGSPALYRNVNTLRERISAFQSAFHSIKENEKMTGCLEFSEAGKESEMTDLTRKEGLSACQQSGFPAVLSSKRRRISYQRDSDENLTDAEGKVIGLQIFNIDTDRACAVETSVDLSEISSKLGSTQSGFLVEESLPLSELTETSNALKVADCVVGKGSSDAVSPDTFTAEVSSDAVPDVRSPATPACRRDLPTPKTFVLRSVLKKPSVKMCLESLQEHCNNLYDDDGTHPSLISNLPNCCKEKEAEDEENFEAPAFLNMRKRKRVTFGEDLSPEVFDESLPANTPLRKGGTPVCKKDFSGLSSLLLEQSPVPEPLPQPDFDDKGENLENIEPLQVSFAVLSSPNKSSISETLSGTDTFSSSNNHEKISSPKVGRITRTSNRRNQLVSVVEESVCNLLNTEVQPCKEKKINRRKSQETKCTKRALPKKSQVLKSCRKKKGKGKKSVQKSLYGERDIASKKPLLSPIPELPEVPEMTPSIPSIRRLGSGYFSSNGKLEEVKTPKNPVKRKDLLRHDPDLHMHQGYDKYDVSEFCSYIKSSSSLGNATSDEDPNTNIMNINENKNIPKAKNKSESENEPKAGTDSPVSCASVTEERVASDSPKPALTLQQGQEFSAGGQNAENLCQFFKISPDLNIKCERKDDFLGAAEGKLQCNRLMPNSQKDCHCLGDVLIENTKESKSQSEDLGRKPMESSSVVSCRDRKDRRRSMCYSDGRSLHLEKNGNHTPSSSVGSSVEISLENSELFKDLSDAIEQTFQRRNSETKVRRSTRLQKDLENEGLVWISLPLPSTSQKAKRRTICTFDSSGFESMSPIKETVSSRQKPQMAPPVSDPENSQGPAAGSSDEPGKRRKSFCISTLANTKATSQFKGYRRRSSLNGKGESSLTALERIEHNGERKQ
chain 2: not shown

In the first assay the parent is B1. Description: proximity ligation assay (PLA). To be noted: with endogenous PP2A-B56γ [human (endogenous in HeLa)]; asynchronous; endogenous RepoMan knocked down using siRM; Anti-GFP+B56γ antibodies; median shown in red; read off a plot.
Regarding chain 1 P604A, the response (PLA foci per cell) was found to be 10.

The same assay, now with this note: with endogenous PP2A-B56γ [human (endogenous in HeLa)]; monastrol arrested; endogenous RepoMan knocked down using siRM; Anti-GFP+B56γ antibodies; median shown in red; read off a plot.
chain 1 P604A: the response (PLA foci per cell) amounted to 19.

Variants of B1 are the subject of a further assay. Description: immunofluorescence, dCas9-DARPin recruitment to ectopic foci on chr 1. The conditions noted are these: with mCherry-B56γ; prometaphase-arrested cells; average of 3 independent experiments, 58 (wt) 60 (P604A) cells; read off a plot.
Turning to chain 1 P604A, the response amounted to 0.45.

The values above are taken from PMC13299607.
